Test results as given in the RNAGym collection of RNA variant scans (doi:10.1073/pnas.2313332121).

B1: TPR t1 (parent)
chain: GACCAAUCUGCCCUCAGAGCUCGAGAACAUCUUCGGAUGCAGAGGAGGCAGGCUUCGGUGGCGCGAUAGCGCCAACGUCCUCAACCUCCAAUGCAUCCCACCACAUGAUGAUGCCUGAAGAGCCUUGGUUUUUUG

Variants of: B1
Test: polymerase ribozyme fitness, log enrichment relative to wild type (log ratio); higher = more active; in vitro selection for triplet polymerase activity
Procedure, shortened: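 In triplicate, a single round of in vitro selection was run on each mutant library, PCR-built and transcribed, covering one subunit of a heterodimeric triplet polymerase ribozyme. Frozen incubation at −7 °C followed annealing with a biotinylated primer, partner subunit and triplets, and extended constructs were then gel-excised, streptavidin-captured and taken through RT-PCR. Fitness is the logarithm of genotype enrichment over wild-type enrichment, from inverse-variance-weighted replicate averages of Illumina-sequenced inputs and outputs. […] only genotypes with ≥10 input reads and ≥1 read per output were kept.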

| Variant | polymerase ribozyme fitness (log ratio) |
| --- | --- |
| GACCAAUCUGCCCUCAGAGCUCGAGAACAUCUUCGGAUGCAGAGGAGGCAGGCUUAGGUGCCGCGAUAGCGCCAACGUCCUCAACCUCCAAUGCAUCCCACCACAUGAUGAUGCCUGAAGAGCCUUGGUUUUUUG [C56A G61C] | -5.03 |
| GACCAAUCUGCCCUCAGAGCUCGAGAACAUCUUCGGAUGCAGAGGAGGCAGGCUUAGGUGGCGCGAUAUCGCUAACGUCCUCAACCUCCAAUGCAUCCCACCACAUGAUGAUGCCUGAAGAGCAUUGGUUUUUUG [C56A G69U C73U C124A] | 1.14 |
| GACCAAUCUGCCCUCAGAGCUCGAGAACAUCUUCGGAUGCAGAGGAGGCAGGCUUAGGUGGCGCGAUAGCGCCAACGUCCUCAACCGCCAAUGCAUCCCACCACAUGGUGAUCCCUGAAGAGCCUUGGUUUUUUG [C56A U87G A108G G113C] | -3.65 |
| GACCAAUCUGCCCUCAGAGCUCGAGAACAUCUUCGGAUGCAGAGGAGGCAGGCUUAUGUGGCGCGAUAGCGCCAACGCCCUCAACCUCCAAUGCAUCCCACCACAUGAUGAUCCCUGAAGAGCCUUGGUUUUUUG [C56A G57U U78C G113C] | -3.22 |
| GACCAAUCUGCCCUCAGAGCUCGAGAACAUCUUCGGAUGCAGAGGAGGCAGGCUUAGGUGGCGCGAUAGCGCCAACGUCCUCAACCUCCAAUGCAUCCCACCACAUAAUGAUGCCUGAAGAGCCUUGGUUUUUUG [C56A G107A] | -3.75 |
| GACCAAUCUGCCCUCAGAGCUCGAGAACAUCUUCGGAUGCAGAGGAGGCAGGCUUAGGGGGCGCGAUAGCGCCAACGUCCUCGACCUCCAAUGCAUCCCACCACAUGAUGAUGCCUGAAGAGCCUUGGUUUUUUG [C56A U59G A83G] | -1.48 |
| GACCAAUCUGCCCUCAGAGCUCGAGAACAUCUUCGGAUGCAGAGGAGGCAGGCUUAGGUGGCGCGAUAGCGCCAACGUCCUCAACCUCCAAUGCAUCCAACCACAUGAUGAUGCCUGAAGAGCCUUGGUUUUUUG [C56A C99A] | -6.08 |
| GACCAAUCUGCCCUCAGAGCUCGAGAACAUCUUCGGAUGCAGAGGAGGCAGGCUUAGGUGGCGCGAUAGCGCCAACGUCCUCAACCUCCAAUGCAUCCCACCACAUGAUGAUGCCUGAAGAGCCUUAGUUUUUUG [C56A G127A] | -1.47 |
| GACCAAUCUGCCCUCAGAGCUCGAGAACAUCUUCGGAUGCAGAGGAGGCAGGCUUAGGUGGCGCGAUAGCGCCAACGUCCUCAACCUCCAAUUCAUCCCACCACAUGAUGAUGCCUGAAGAGCCUUGGUUUUUUG [C56A G93U] | -2.21 |
| GACCAAUCUGCCCUCAGAGCUCGAGAACAUCUUCGGAUGCAGAGGAGGCAGGCUUAGCUGGCGCGAUAGCGCCAACGUCCUCAACCUCCAAUGCAUCCCACCACAUGAUGAUGCCUGAAGAGCCUUGGUUUUUUG [C56A G58C] | -0.496 |
| GACCAAUCUGCCCUCAGAGCUCGAGAACAUCUUCGGAUGCAGAGGAGGCAGGCUUAGGUGGCGCGAUAGCGCCAACGUCCUCAACCUCCAAUGCAUCCCACCACAUGAUGAUGCUUGAAGAGCCUUGGUAUUUUG [C56A C115U U130A] | -1.24 |
| GACCAAUCUGCCCUCAGAGCUCGAGAACAUCUUCGGAUGCAGAGGAGGCAGGCUUAGGUGGCGCGAUAGCGCCAACGUCCUCAACCUCCAAUGCAUCCCACCACAUGAUGAUGCCUGAAGAGCAUUAGUUUUUUG [C56A C124A G127A] | 0.497 |
| GACCAAUCUGCCCUCAGAGCUCGAGAACAUCUUCGGAUGCAGAGGAGGCAGGCUUAGGUGGCGCGAUAGCGCCAACGUCCUCAACCUCCAAUGCAUCCCAUCACAUGAUAAUGCCUGAAGAGCCUUGGUUUUUUG [C56A C101U G110A] | -1.05 |
| GACCAAUCUGCCCUCAGAGCUCGAGAACAUCUUCGGAUGCAGAGGAGGCAGGCUUAGGUGGCGCGAUAGCACCAACGUCCUCAACAUCCAAUGCAUCCCACCAAAUGAUGAUGCCUGAAGAGCCUUGGUUUUUUG [C56A G71A C86A C104A] | -6.75 |
| GACCAAUCUGCCCUCAGAGCUCGAGAACAUCUUCGGAUGCAGAGGAGGCAGGCUUAGGUGGCGCGAUAGCGCCAACGCCCUCAACCUCCAAUGCAUCACACCACAUGAUGAUGCCUGAAGAAUCUUGGUUUAUUG [C56A U78C C98A G122A C123U U132A] | -5.25 |
| GACCAAUCUGCCCUCAGAGCUCGAGAACAUCUUCGGAUGCAGAGGAGGCAGGCUUAGGUGGCGCGAUAGCGCCAACGUCCUCAACCUUCAAUGCCUCCCACCACAUGGUGAUGCCUGAAGAGCCUUGGUUUUUUG [C56A C88U A95C A108G] | -3.49 |
| GACCAAUCUGCCCUCAGAGCUCGAGAACAUCUUCGGAUGCAGAGGAGGCAGGCUUAGGUGGCGCGAUAGCGCCAAGGUCCUCAACCUCCAAUGCAUCCCACCACAUGAUGAUGCCUGAAGAGCCUUGGUUUUUUG [C56A C76G] | 0.138 |
| GACCAAUCUGCCCUCAGAGCUCGAGAACAUCUUCGGAUGCAGAGGAGGCAGGCUUAGGUGGCUCGAUAGCGCCAACCUCCUCAACCUCCAAUGCAUCCCACCACAUGAUGAUGCGUGAAGAGCCUUGGUUUUUUG [C56A G63U G77C C115G] | -4.37 |
| GACCAAUCUGCCCUCAGAGCUCGAGAACAUCUUCGGAUGCAGAGGAGGCAGGCUUAGGUGGCGCGAUAGCGCCAACGUGCUCAACCUCCAAUACAUCCCACCACAUGAUGAUGCCUGAAGAGCCUUGGUUUUUUG [C56A C79G G93A] | -2.59 |
| GACCAAUCUGCCCUCAGAGCUCGAGAACAUCUUCGGAUGCAGAGGAGGCAGGCUUAGGUGGCGCGAUAACGCCAACGUCCUCAACCUCCAAUGCAUCCCAUCACAUGAUAAUGCCUGAAGAGCCUUGGUUUUUUG [C56A G69A C101U G110A] | -5.53 |
| GACCAAUCUGCCCUCAGAGCUCGAGAACAUCUUCGGAUGCAGAGGAGGCAGGCUUAGGUGGCACGAUAGCGCCAACGUCCUCAACCUCCACUGCAUCCCACCACAUGAUGAUGCCUGAAGAGCCUUGGUUUUUUG [C56A G63A A91C] | -5.68 |

| Variant | polymerase ribozyme fitness (log ratio) |
| --- | --- |
| GACCAAUCUGCCCUCAGAGCUCGAGAACAUCUUCGGAUGCAGAGGAGGCAGGCUUAGGUGGCGCGAUAGCGCCAACGUCCUCAACCUGCAAUGCAUCCCACCACAUGAUGAUGCCUGUAGAGCCUUGGUUUUUUG [C56A C88G A118U] | -1.12 |
| GACCAAUCUGCCCUCAGAGCUCGAGAACAUCUUCGGAUGCAGAGGAGGCAGGCUUACGUGGCGCGAUAGCGCCAACGUCCUCAACCUCCAAUGCAUCCCACCACAUGAUGAUGCCUGAAGAGCCUUGGUUUUUUG [C56A G57C] | 0.379 |
| GACCAAUCUGCCCUCAGAGCUCGAGAACAUCUUCGGAUGCAGAGGAGGCAGGCUUAGGUGGCGCGAUAGCGCUAACGUCCUCAACCUCCAAUGCAUUCCACCUCAUGAUGAUGCCUGAACAGCCUUGGUUUUUUG [C56A C73U C97U A103U G120C] | -7.26 |
| GACCAAUCUGCCCUCAGAGCUCGAGAACAUCUUCGGAUGCAGAGGAGGCAGGCUUAGGUGGCGCGAUAGCGCCAACGUCCUCAACCUCCAAUGCAUCCCACCACAUGAUGAUCCCUGAAGAGCCUUGGUUUUUUG [C56A G113C] | -1.7 |
| GACCAAUCUGCCCUCAGAGCUCGAGAACAUCUUCGGAUGCAGAGGAGGCAGGCUUAGGUGGCGCGAUAGCGCCAACGUGCUCAACCUCCAAUGCAUCCCACCACAUGAUGAUGCCUGAAGAGGCUUGGUUUUAUG [C56A C79G C123G U133A] | 1.29 |
| GACCAAUCUGCCCUCAGAGCUCGAGAACAUCUUCGGAUGCAGAGGAGGCAGGCUUAGGUGGCGCGAUAGCGCCAACGUCCUCAACCUCCAAUGCAUCCCACCACAUAAUGAUGCCUGAAGCGCCUUGGUUUUUUG [C56A G107A A121C] | -4.32 |
| GACCAAUCUGCCCUCAGAGCUCGAGAACAUCUUCGGAUGCAGAGGAGGCAGGCUUAGGUUGCGCGAUAGCGCCAACGUCCUCAACCUCCAAUGCAUCCCACCACAUGAUGAUGCCUGAAGAGCCUUGGUUUUUUG [C56A G60U] | 0.0473 |
| GACCAAUCUGCCCUCAGAGCUCGAGAACAUCUUCGGAUGCAGAGGAGGCAGGCUUAGGUGGCGCGAUAGCGCCAACGUCCUCAACCUCCAAUGCAUCCCACCACAUGAUGAUGCAUGAAGAGCCUUGGUUUUUUG [C56A C115A] | -0.059 |
| GACCAAUCUGCCCUCAGAGCUCGAGAACAUCUUCGGAUGCAGAGGAGGCAGGCUUAGGUAGCGCGAUACCGCCAACGUCCUCAACCUCCAAUGCAUCCCACCACAUGAUGAUGCCUGAAGAGCCUUGGUUUUUUG [C56A G60A G69C] | -3.21 |
| GACCAAUCUGCCCUCAGAGCUCGAGAACAUCUUCGGAUGCAGAGGAGGCAGGCUUAGGUGGCGCGAUAGCGCCAACGUCCUCAACCUCCAAUGCAUUCCACCACAUGAUGAUGCCUGAAGAGCCUUGGUUUUUUG [C56A C97U] | -1.33 |
| GACCAAUCUGCCCUCAGAGCUCGAGAACAUCUUCGGAUGCAGAGGAGGCAGGCUUAGGUGGCGCGAAAGCGCCAACGUCCUCAACCUCCAAUGCAUCCCACCACAUGAUGAUGCCUGAAGAGCCUUGGUUUUUUG [C56A U67A] | -6.26 |
| GACCAAUCUGCCCUCAGAGCUCGAGAACAUCUUCGGAUGCAGAGGAGGCAGGCUUAGGUGGCGCGAUAGCGCCAACGUCCUCAACCUCCAAGGCAUCCCACCACAUGAUGAUGCCUGAAGAGCCUUGGUUUUUUG [C56A U92G] | -2.6 |
| GACCAAUCUGCCCUCAGAGCUCGAGAACAUCUUCGGAUGCAGAGGAGGCAGGCUUAGGUGGCGCGAUAGCGCCAACGUCCUCAACCUCCAAAGCAUCCCACCACAUGAUGAUGCCUGAAGAGCCUUGGUUUUUUG [C56A U92A] | -3.75 |
| GACCAAUCUGCCCUCAGAGCUCGAGAACAUCUUCGGAUGCAGAGGAGGCAGGCUUAGGUGGCGCGAUAGCGCCAACGUCCUCAACUUCCAAUGCAUCCCACCACAUGAUGAUGCCUGAAGAGCCUUGGUUUUUUG [C56A C86U] | -0.995 |
| GACCAAUCUGCCCUCAGAGCUCGAGAACAUCUUCGGAUGCAGAGGAGGCAGGCUUAGGUGGCGCGAUAGCGCCAACGUCCUCAACCUCCAAUGCAUCCCACCACAUGAUGAUGCCUGAAGAGCCUUGCUUUUUUG [C56A G128C] | -2.8 |
| GACCAAUCUGCCCUCAGAGCUCGAGAACAUCUUCGGAUGCAGAGGAGGCAGGCUUAGGUGGCGCGAUAGCGCCAACGUCCUCAACCUCCAAUGCAUCCCACCACAUGAUGAUGUUUGAAGAGCCUUGGUUCUUUG [C56A C114U C115U U131C] | -5.83 |
| GACCAAUCUGCCCUCAGAGCUCGAGAACAUCUUCGGAUGCAGAGGAGGCAGGCUUAGGUGGCGCGAUAGCGCCAACGUCCUCAACCUCCAAUGCAUCCCACCACAUGAUGAUGCCUGAAUAGCCUUGGUUUUUUG [C56A G120U] | -0.119 |
| GACCAAUCUGCCCUCAGAGCUCGAGAACAUCUUCGGAUGCAGAGGAGGCAGGCUUAGGUGGCGCGAUAGCACCAACGUCCUCAACCUCCAAUGCAUCCCUCCACAUGAUGAUGCCUGAAGAGCCUUGGUUUUUUG [C56A G71A A100U] | -5.55 |
| GACCAAUCUGCCCUCAGAGCUCGAGAACAUCUUCGGAUGCAGAGGAGGCAGGCUUAGGUGGCGCGAUAGCGCCAACGUCCUCAACCUCCAAUGCAUUCCACCACAUGAUGAUUCCUGAAGAGCCUUGGUUUUUUG [C56A C97U G113U] | -4.2 |
| GACCAAUCUGCCCUCAGAGCUCGAGAACAUCUUCGGAUGCAGAGGAGGCAGGCUUAGGUGACGCGAUAGCGCCAACGUCCUCAACCUCCAACGCAUCCCACCACAUGAUGAUGCCUGAAGAGCCUUGGUUUUUUG [C56A G61A U92C] | -4.04 |
| GACCAAUCUGCCCUCAGAGCUCGAGAACAUCUUCGGAUGCAGAGGAGGCAGGCUUAGGUGGCGCGAUAGCGCCAACGUCAUCAACCUCCAAUGCAUCCCACCACAUGAUGAUGCCUGAAGAGCCUUGGUUUUUUG [C56A C80A] | -2.22 |
